# B1: r16_88_TrROS_Hall (parent)
# chain: EVIELKIKFKTPEQREKLKEIAKKLNAEVVEEKDGEVIIRFKTPEQAERALKEAEKLGAEVEL
# Variants of: B1
# Assay: folding stability dG (cDNA display proteolysis); higher = more stable
# Settings: PBS, room temperature
row,Variant,folding stability dG [kcal/mol]
1,EVIELKIKFKTPEQREKLKEIAKKLNAEVVEEKDGEVIIRFKTPEQAERALKEAEKLGAEVRL [E62R],3.94
2,EVIELKIKFKTPEQREALKEIAKKLNAEVVEEKDGEVIIRFKTPEQAERALKEAEKLGAEVEL [K17A],4.54
3,EVIELKIKFKTPEQREKLKEGAKKLNAEVVEEKDGEVIIRFKTPEQAERALKEAEKLGAEVEL [I21G],3.77
4,EVIELKIKFKTPEQREKLKEIAKKLNAEVVEEKDGEVIIRFKTPEQAEGALKEAEKLGAEVEL [R49G],4.37
5,EVIELKIKFKTPEQREKLKEIAKKLNAEVVEEKDGEVIIRFKTPEQAEIALKEAEKLGAEVEL [R49I],4.49
6,EVIELKIKFKTPEQREKLKEIAKKLNAEVVEEKDGEVIIRFKTPEQAEEALKEAEKLGAEVEL [R49E],4.52
7,EVIELKIKFKTPEQREKLKEIAKKLNAEVVEEKDGEVIIRFKTPEQAERALKEAEKLNAEVEL [G58N],4.25
8,EVIELKIKFKTPEQREKLKEIAKKLNAEVVEEKDGEVIIRFKTPEQAERALKEAEKLTAEVEL [G58T],4.26
9,EVIELKIKFETPEQREKLKEIAKKLNAEVVEEKDGEVIIRFKTPEQAERALKEAEKLGAEVEL [K10E],4
10,EVIELKIKFQTPEQREKLKEIAKKLNAEVVEEKDGEVIIRFKTPEQAERALKEAEKLGAEVEL [K10Q],4.34
11,EVIELKIKFKTPEQREKLKEIAVKLNAEVVEEKDGEVIIRFKTPEQAERALKEAEKLGAEVEL [K23V],4.62
12,EVIELKIKFKTPEQREKLKEIAKKLNAEVVEEKDGEVIIRFKTPEQAERALKEAEKLGAEVEF [L63F],4.07
13,EVIELKIKFKTPVQREKLKEIAKKLNAEVVEEKDGEVIIRFKTPEQAERALKEAEKLGAEVEL [E13V],4.37
14,EVIELKIKFKTPLQREKLKEIAKKLNAEVVEEKDGEVIIRFKTPEQAERALKEAEKLGAEVEL [E13L],4.88
15,EVIELKIKFKWPEQREKLKEIAKKLNAEVVEEKDGEVIIRFKTPEQAERALKEAEKLGAEVEL [T11W],4.6
16,EVIELKIKFKTPEQREKLKEIAKKLNAEVVEEKDGEVINRFKTPEQAERALKEAEKLGAEVEL [I39N],2.82
17,EVIELKIKFKTPEQREKLKEIAKKLNAEVVEEKDGEVIIRFCTPEQAERALKEAEKLGAEVEL [K42C],4.29
18,EVIELKIKFKTPEQREKLKEIAKKLNAEVVEEKDGEVIIRIKTPEQAERALKEAEKLGAEVEL [F41I],4.16
19,EVIELKIKFKTPEQREKLKEIAKKLNAEVVEEKDGEVIIRKKTPEQAERALKEAEKLGAEVEL [F41K],0.67
20,EVIELKIKFKTPEQREKLKEIAKKDNAEVVEEKDGEVIIRFKTPEQAERALKEAEKLGAEVEL [L25D],4.31
21,EVIELKIKFKTPEQREKLKEIAKKTNAEVVEEKDGEVIIRFKTPEQAERALKEAEKLGAEVEL [L25T],4.29

row,Variant,folding stability dG [kcal/mol]
1,EVIELKFKFKTPEQREKLKEIAKKLNAEVVEEKDGEVIIRFKTPEQAERALKEAEKLGAEVEL [I7F],4.53
2,EVIELKHKFKTPEQREKLKEIAKKLNAEVVEEKDGEVIIRFKTPEQAERALKEAEKLGAEVEL [I7H],3.18
3,EVIELKIKFKTPEQREKLKEIAKKLNAEVVEEKDGEVIIRFKTPEQAERALKEAEKLGAAVEL [E60A],4.12
4,EVIELKIKFKTPEQREKLKEIAKKLNAEVVEEKDLEVIIRFKTPEQAERALKEAEKLGAEVEL [G35L],4.32
5,EVIELKIKFKTPEQREKLKEIAKKLNAEVVEEKDYEVIIRFKTPEQAERALKEAEKLGAEVEL [G35Y],4.18
6,EVIELKIKFKTPEQREKLKEIAKKLNAEVVEEKDTEVIIRFKTPEQAERALKEAEKLGAEVEL [G35T],4.36
7,EVIELKIKFKTPEQREKLKEIAKKLNAEVVEEKDGEVIIRFKTPEQGERALKEAEKLGAEVEL [A47G],4.28
8,EVIELKIKFKTPEQREKLKEIAKKLNAEVVEEKDGEVIIRFKTPEQSERALKEAEKLGAEVEL [A47S],4.39
9,EVIELKIKFKTPEQREKLKEIAKKLNAEVVEEKDGEVIIRFKTPEQVERALKEAEKLGAEVEL [A47V],4.63
10,EVIYLKIKFKTPEQREKLKEIAKKLNAEVVEEKDGEVIIRFKTPEQAERALKEAEKLGAEVEL [E4Y],4.64
11,EVIELKIKFKTPEQREKLKEIAKKLNYEVVEEKDGEVIIRFKTPEQAERALKEAEKLGAEVEL [A27Y],4.25
12,EVIELKIKFKTPEQREKLKEIAKKLNLEVVEEKDGEVIIRFKTPEQAERALKEAEKLGAEVEL [A27L],4.45
13,EVIELKIKFKTPEQPEKLKEIAKKLNAEVVEEKDGEVIIRFKTPEQAERALKEAEKLGAEVEL [R15P],3.44
14,EVCELKIKFKTPEQREKLKEIAKKLNAEVVEEKDGEVIIRFKTPEQAERALKEAEKLGAEVEL [I3C],4.46
15,EVKELKIKFKTPEQREKLKEIAKKLNAEVVEEKDGEVIIRFKTPEQAERALKEAEKLGAEVEL [I3K],4.76
16,EVIELKIKFKTPEQREKLKEIAKKLNAEVVEEKDGEVIIRFKTPEQAQRALKEAEKLGAEVEL [E48Q],4.37
17,EVIELKIKFKTPEQREKLKEIAKKLNAEVVEEKDGEVIIRFKTPEQAGRALKEAEKLGAEVEL [E48G],4.28
18,EVIELKIKFKTPEQREKLKEIAKKLNAEVVEEKDGEVIIRFKTPEQAKRALKEAEKLGAEVEL [E48K],4.67
19,EVIELKIKFKTPEQREKLKEIAKKLNAEVVEEKDGEVIIRFKTPEQAERALMEAEKLGAEVEL [K52M],4.28
20,EVIELKIKFKTPEQREKLKEIAKKLNAEVVEEKDGEVIIRFKTPEQAERALYEAEKLGAEVEL [K52Y],4.67
21,EVIELKIIFKTPEQREKLKEIAKKLNAEVVEEKDGEVIIRFKTPEQAERALKEAEKLGAEVEL [K8I],4.12
